Holding throughout (details): modification not given
Assay [1] addresses T1, PC2, P16519.
T1 chain: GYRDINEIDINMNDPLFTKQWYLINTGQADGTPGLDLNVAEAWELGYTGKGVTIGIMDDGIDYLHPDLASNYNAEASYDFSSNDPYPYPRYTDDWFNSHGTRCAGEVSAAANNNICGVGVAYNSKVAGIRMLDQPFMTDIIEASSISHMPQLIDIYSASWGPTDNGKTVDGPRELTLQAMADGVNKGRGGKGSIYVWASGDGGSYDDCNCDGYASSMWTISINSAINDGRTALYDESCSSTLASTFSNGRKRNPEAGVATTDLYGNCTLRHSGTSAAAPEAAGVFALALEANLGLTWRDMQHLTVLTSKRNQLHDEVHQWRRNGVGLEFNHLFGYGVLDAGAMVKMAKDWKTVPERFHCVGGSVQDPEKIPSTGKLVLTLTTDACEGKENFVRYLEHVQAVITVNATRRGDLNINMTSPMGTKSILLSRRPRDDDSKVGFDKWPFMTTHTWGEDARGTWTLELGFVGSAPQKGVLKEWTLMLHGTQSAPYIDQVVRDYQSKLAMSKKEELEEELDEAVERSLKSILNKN

For assay [2], the target named is T2, Furin (recombinant, truncated) (mouse), P23188.
T2 chain: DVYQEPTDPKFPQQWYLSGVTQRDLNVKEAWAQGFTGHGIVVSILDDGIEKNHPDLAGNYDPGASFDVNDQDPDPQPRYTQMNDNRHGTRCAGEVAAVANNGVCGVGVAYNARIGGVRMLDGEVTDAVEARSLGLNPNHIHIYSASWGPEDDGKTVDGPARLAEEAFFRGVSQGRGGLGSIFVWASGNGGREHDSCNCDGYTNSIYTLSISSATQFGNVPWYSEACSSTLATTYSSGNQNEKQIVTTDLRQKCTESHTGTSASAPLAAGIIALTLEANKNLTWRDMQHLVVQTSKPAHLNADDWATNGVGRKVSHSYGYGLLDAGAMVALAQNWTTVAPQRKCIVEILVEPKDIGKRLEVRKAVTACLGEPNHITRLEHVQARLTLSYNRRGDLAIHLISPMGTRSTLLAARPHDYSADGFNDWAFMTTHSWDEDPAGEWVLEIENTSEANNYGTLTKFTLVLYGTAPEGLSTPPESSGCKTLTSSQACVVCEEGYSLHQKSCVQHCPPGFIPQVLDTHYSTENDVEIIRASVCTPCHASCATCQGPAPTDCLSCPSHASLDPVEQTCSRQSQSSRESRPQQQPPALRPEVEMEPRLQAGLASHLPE

In assay [3] the target is T1, PC2, P16519.
Assay [4] deals with T2, Furin (recombinant, truncated) (mouse), ….
For assay [5], the target named is T1, PC2, P16519.
The target in assay [6] is T2, Furin (recombinant, truncated) (mouse), ….
The target is the same in assay [7].
Assay [8] has as its target T1, PC2, P16519.
The target of assay [9] is T2, Furin (recombinant, truncated) (mouse), ….
The target in assay [10] is T3, PACE4, P29122.
T3 chain: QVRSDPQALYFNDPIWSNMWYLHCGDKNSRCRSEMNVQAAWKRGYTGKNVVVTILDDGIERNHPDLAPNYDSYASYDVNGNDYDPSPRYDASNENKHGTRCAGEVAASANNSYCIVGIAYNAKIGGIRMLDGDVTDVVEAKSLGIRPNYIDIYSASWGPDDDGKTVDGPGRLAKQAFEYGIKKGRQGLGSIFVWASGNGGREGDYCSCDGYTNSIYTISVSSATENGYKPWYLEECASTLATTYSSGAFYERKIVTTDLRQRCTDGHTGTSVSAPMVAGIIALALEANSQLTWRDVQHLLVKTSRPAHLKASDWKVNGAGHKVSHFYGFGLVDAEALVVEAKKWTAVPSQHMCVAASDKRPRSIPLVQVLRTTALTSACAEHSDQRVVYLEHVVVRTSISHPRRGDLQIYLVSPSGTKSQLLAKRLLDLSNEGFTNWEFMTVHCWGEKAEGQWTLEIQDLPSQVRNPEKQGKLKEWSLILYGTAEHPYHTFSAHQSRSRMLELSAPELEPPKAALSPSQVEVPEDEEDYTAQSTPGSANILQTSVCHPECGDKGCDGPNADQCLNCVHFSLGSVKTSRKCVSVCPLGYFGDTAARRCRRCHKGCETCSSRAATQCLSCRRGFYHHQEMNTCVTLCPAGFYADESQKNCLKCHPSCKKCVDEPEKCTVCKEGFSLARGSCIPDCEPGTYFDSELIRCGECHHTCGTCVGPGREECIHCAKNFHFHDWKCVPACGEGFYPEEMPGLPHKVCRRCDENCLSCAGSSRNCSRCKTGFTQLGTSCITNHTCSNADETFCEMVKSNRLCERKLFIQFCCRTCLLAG

Assay [11] concerns the target T4, PC1, P29120.
T4 chain: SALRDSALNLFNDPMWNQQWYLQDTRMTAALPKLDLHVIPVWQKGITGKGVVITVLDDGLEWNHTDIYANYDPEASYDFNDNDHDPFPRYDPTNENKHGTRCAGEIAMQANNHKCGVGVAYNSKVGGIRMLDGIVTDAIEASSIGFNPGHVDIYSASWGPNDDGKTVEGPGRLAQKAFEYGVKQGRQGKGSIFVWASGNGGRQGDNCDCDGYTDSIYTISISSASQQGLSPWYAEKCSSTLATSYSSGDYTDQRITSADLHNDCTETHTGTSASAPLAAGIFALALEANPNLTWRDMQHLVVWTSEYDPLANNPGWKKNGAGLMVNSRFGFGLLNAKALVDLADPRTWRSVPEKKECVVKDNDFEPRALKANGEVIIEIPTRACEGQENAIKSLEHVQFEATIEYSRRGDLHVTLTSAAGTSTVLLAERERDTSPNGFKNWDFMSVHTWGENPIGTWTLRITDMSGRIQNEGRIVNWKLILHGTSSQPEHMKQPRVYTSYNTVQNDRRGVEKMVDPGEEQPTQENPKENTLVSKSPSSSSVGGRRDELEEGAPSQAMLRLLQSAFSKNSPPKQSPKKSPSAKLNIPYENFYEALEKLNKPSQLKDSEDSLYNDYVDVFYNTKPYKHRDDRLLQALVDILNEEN

The target of assay [12] is T1, PC2, P16519.
The target in assay [13] is T2, Furin (recombinant, truncated) (mouse), ….
For assay [14], the target named is Furin (literature), P09958.
The next assay has as its target T5, PC7, Q16549.
T5 chain: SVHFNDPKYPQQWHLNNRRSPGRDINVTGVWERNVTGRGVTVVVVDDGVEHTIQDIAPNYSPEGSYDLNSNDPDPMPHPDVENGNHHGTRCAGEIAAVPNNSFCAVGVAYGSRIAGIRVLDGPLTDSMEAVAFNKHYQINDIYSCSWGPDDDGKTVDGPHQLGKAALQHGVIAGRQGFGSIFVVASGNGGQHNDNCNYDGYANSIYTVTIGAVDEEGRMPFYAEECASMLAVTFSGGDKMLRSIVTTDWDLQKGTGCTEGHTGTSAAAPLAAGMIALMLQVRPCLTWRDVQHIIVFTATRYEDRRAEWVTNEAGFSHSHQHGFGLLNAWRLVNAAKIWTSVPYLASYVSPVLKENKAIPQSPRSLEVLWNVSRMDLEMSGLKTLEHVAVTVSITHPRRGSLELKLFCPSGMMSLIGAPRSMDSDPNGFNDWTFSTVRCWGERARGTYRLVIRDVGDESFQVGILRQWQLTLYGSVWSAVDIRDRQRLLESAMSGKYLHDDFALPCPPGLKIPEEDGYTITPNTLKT

Assay [15] has as its target T2, Furin (recombinant, truncated) (mouse), ….
In assay [16] the target is T1, PC2, P16519.
Assay [17] concerns the target T1, PC2, P16519.
Assay [18] has as its target T2, Furin (recombinant, truncated) (mouse), ….
Assay [19] has the same target.
Assay [20] deals with T3, PACE4, P29122.
The target of assay [21] is T4, PC1, P29120.

Where two headings read alike, the source gives them in different places. No end group written: not given here.

Sequence of Furin (literature), P09958 (P09958 108-715): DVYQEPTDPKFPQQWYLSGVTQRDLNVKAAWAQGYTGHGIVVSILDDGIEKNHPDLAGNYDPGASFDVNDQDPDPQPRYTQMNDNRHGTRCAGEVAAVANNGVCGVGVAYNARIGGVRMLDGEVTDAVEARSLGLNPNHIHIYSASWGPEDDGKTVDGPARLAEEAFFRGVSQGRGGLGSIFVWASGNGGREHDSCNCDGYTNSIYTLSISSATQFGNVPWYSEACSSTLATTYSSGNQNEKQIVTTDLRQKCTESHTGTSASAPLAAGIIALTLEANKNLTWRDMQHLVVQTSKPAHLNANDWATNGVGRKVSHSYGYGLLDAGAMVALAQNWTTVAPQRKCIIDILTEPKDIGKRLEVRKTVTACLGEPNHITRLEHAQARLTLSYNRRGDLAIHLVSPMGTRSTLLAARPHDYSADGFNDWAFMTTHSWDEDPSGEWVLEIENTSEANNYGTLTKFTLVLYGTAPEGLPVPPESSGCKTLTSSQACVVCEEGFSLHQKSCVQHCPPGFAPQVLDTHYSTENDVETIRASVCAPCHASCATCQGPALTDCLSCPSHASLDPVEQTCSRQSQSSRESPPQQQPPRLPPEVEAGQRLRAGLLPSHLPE

Broadly, the Ki is a dissociation constant, usually derived from enzyme kinetics or from competition with a known ligand. With Ac-RHKRRR-NH2 [Ac-RHKRRR-NH2], the Ki with PC2, P16519 [1] came to 152000 nM; in assay [2] it was 3400 nM.

Turning to Ac-KHKRRR-NH2 [Ac-KHKRRR-NH2], the Ki with PC2, P16519 [3] amounted to 280000 nM; in assay [4], 5200 nM.

Turning to Ac-KRKRRR-NH2 [Ac-KRKRRR-NH2], the Ki in the assay with PC2, P16519 [5] was found to be 391000 nM; in [6] it was 1600 nM.

With Ac-LLRVKR-NH2 [Ac-LLRVKR-NH2], the Ki came out at 3400 nM in [7] and 1000 nM with PC2, P16519 [8].

For the molecule RRRRRRRR [Octa-L-arginine], the Ki worked out at 61 nM in assay [9]; 150 nM with PACE4, P29122 [10]; 5100 nM in the assay with PC1, P29120 [11].

Turning to Ac-HRKRRR-NH2 [Ac-HRKRRR-NH2], the Ki was 309000 nM with PC2, P16519 [12] and 2100 nM in assay [13].

Take EQRLLKRAKR [PC7 propeptide fragment]: the Ki in [14] was found to be 80 nM; with PC7, Q16549 it was 6 nM.

In the case of Ac-LLRVKR [Ac-LLRVKR], the Ki came out at 3500 nM in assay [15] and 1300 nM with PC2, P16519 [16].

For the molecule Ac-RRKRRR-NH2 [Ac-RRKRRR-NH2], the Ki amounted to 461000 nM in the assay with PC2, P16519 [17] and 1300 nM in assay [18].

In the case of RRRRRRRRR [Nona-L-arginine], the Ki in [19] turned out to be 42 nM; in the assay with PACE4, P29122 [20] it was 110 nM; in the assay with PC1, P29120 [21] it was 12000 nM.

These data come from US7033991.
